Where two headings read alike, the source gives them in different places. Blank lines part the entries; values can stand above or below the binder they belong to.
B3: Stn1 (natural protein, human, UniProt Q9H668 1-368, looked up)
chain: MQPGSSRCEEETPSLLWGLDPVFLAFAKLYIRDILDMKESRQVPGVFLYNGHPIKQVDVLGTVIGVRERDAFYSYGVDDSTGVINCICWKKLNTESVSAAPSAARELSLTSQLKKLQETIEQKTKIEIGDTIRVRGSIRTYREEREIHATTYYKVDDPVWNIQIARMLELPTIYRKVYDQPFHSSALEKEEALSNPGALDLPSLTSLLSEKAKEFLMENRVQSFYQQELEMVESLLSLANQPVIHSASSDQVNFKKDTTSKAIHSIFKNAIQLLQEKGLVFQKDDGFDNLYYVTREDKDLHRKIHRIIQQDCQKPNHMEKGCHFLHILACARLSIRPGLSEAVLQQVLELLEDQSDIVSTMEHYYTAF

Experiments:
Experiment in all cases: cryo-EM structure
Stn1 = target: B3
Ctc1 (His6-MBP-Ctc1) [1] = target: T1, Ctc1 (His6-MBP-Ctc1) (human, UniProt Q2NKJ3 1-1217)
T1 sequence (looked up): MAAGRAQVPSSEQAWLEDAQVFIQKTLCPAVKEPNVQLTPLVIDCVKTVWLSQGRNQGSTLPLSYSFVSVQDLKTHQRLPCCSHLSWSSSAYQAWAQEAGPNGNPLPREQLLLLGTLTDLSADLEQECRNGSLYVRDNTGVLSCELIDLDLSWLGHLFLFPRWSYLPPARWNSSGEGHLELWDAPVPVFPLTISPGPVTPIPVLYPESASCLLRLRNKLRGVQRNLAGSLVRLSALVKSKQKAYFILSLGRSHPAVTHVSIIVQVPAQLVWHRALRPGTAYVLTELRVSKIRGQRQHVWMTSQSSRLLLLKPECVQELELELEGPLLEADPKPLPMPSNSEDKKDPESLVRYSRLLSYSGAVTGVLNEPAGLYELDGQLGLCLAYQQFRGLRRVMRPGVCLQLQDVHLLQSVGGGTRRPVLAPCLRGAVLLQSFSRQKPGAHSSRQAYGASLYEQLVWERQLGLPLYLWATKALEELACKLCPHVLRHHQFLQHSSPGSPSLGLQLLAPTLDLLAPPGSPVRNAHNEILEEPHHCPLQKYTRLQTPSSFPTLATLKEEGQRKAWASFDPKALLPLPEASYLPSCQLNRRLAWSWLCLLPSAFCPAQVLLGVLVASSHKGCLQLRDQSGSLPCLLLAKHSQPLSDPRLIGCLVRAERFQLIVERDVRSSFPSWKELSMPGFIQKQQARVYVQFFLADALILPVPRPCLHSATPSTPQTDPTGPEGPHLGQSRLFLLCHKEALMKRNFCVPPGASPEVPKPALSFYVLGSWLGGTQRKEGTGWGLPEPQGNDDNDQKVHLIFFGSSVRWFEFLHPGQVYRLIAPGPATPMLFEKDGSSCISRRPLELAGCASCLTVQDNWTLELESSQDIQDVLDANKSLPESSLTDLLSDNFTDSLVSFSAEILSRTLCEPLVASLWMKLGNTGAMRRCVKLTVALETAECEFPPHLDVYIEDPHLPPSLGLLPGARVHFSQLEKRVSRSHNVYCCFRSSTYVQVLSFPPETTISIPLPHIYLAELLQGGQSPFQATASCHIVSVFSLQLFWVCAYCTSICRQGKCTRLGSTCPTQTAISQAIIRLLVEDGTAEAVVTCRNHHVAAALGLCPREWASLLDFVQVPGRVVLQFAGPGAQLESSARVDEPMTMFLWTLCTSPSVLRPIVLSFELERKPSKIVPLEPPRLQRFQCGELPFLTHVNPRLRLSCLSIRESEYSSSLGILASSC

Ctc1 (His6-MBP-Ctc1) [2] = target: T1, Ctc1 (His6-MBP-Ctc1); remark: listed apart in the source

binding result (Stn1): binds
B1: Ten1 (natural protein, human, UniProt Q86WV5 1-123, looked up)
chain: MMLPKPGTYYLPWEVSAGQVPDGSTLRTFGRLCLYDMIQSRVTLMAQHGSDQHQVLVCTKLVEPFHAQVGSLYIVLGELQHQQDRGSVVKARVLTCVEGMNLPLLEQAIREQRLYKQERGGSQ

binding result (Ctc1 (His6-MBP-Ctc1) [1]): binds
B2: POT1(ESDL) (natural protein, human, UniProt Q9NUX5 1-634, looked up)
chain: MSLVPATNYIYTPLNQLKGGTIVNVYGVVKFFKPPYLSKGTDYCSVVTIVDQTNVKLTCLLFSGNYEALPIIYKNGDIVRFHRLKIQVYKKETQGITSSGFASLTFEGTLGAPIIPRTSSKYFNFTTEDHKMVEALRVWASTHMSPSWTLLKLCDVQPMQYFDLTCQLLGKAEVDGASFLLKVWDGTRTPFPSWRVLIQDLVLEGDLSHIHRLQNLTIDILVYDNHVHVARSLKVGSFLRIYSLHTKLQSMNSENQTMLSLEFHLHGGTSYGRGIRVLPESNSDVDQLKKDLESANLTANQHSDVICQSEPDDSFPSSGSESDLVSLYEVERCQQLSATILTDHQYLERTPLCAILKQKAPQQYRIRAKLRSYKPRRLFQSVKLHCPKCHLLQEVPHEGDLDIIFQDGATKTPDVKLQNTSLYDSKIWTTKNQKGRKVAVHFVKNNGILPLSNECLLLIEGGTLSEICKLSNKFNSVIPVRSGHEDLELLDLSAPFLIQGTIHHYGCKQCSSLRSIQNLNSLVDKTSWIPSSVAEALGIVPLQYVFVMTFTLDDGTGVLEAYLMDSDKFFQIPASEVLMDDDLQKSVDMIMDMFCPPGIKIDAYPWLECFIKSYNVTNGTDNQICYQIFDTTVAEDVI
modifications: phosphorylated in insect cells (sites not determined)

Binder: B3
binding result (Ctc1 (His6-MBP-Ctc1) [2]): binds
